Target: the molecule itself
Assay: non-reducing SDS-PAGE; purified enzyme, not reduced; 37 kDa and 74 kDa bands (Figure 1, lane 2)

B1: Cpl-1^C45S;D194C (enzyme, pneumococcal phage, UniProt P15057 1-339, looked up)
chain: MVKKNDLFVDVSSHNGYDITGILEQMGTTNTIIKISESTTYLNPSLSAQVEQSNPIGFYHFARFGGDVAEAEREAQFFLDNVPMQVKYLVLDYEDDPSGDAQANTNACLRFMQMIADAGYKPIYYSYKPFTHDNVDYQQILAQFPNSLWIAGYGLNDGTANFEYFPSMDGIRWWQYSSNPFDKNIVLLDDEEDCKPKTAGTWKQDSKGWWFRRNNGSFPYNKWEKIGGVWYYFDSKGYCLTSEWLKDNEKWYYLKDNGAMATGWVLVGSEWYYMDDSGAMVTGWVKYKNNWYYMTNERGNMVSNEFIKSGKGWYFMNTNGELADNPSFTKEPDGLITVA
notes: Cpl-1, pneumococcal phage lysin (endolysin); gene originally carried on plasmid pJML6; expected 37 kDa band; Purified preparation holds the 37 kDa monomer and a 74 kDa disulfide-linked dimer; construct described in Resch et al., 2011; source: E. coli DH5α, purified (DEAE-Sepharose, eluted with choline)
stoichiometry N: 2

Reference: PMC3222324, “PEGylating a bacteriophage endolysin inhibits its bactericidal activity” (AMB Express, 2011)
